The values below come from article PMC6274923, “Pinpointed Stimulation of EphA2 Receptors via DNA-Templated Oligovalence” (International Journal of Molecular Sciences, 2018).

This assay deals with T1, EphA2 receptor (Homo sapiens, UniProt P29317).
T1 construct: PC-3 prostate cancer cells that overexpress the EphA2 receptor; endogenous in cells; host or cells: PC-3 cells (ATCC CRL-1435)
The experiment in a line: EphA2 phosphorylation assay (sandwich ELISA, DuoSet IC Human Phospho-EphA2 kit) in PC-3 cells. In kind it is cell-based. On the technique in general: ELISA stands for enzyme-linked immunosorbent assay.

The mark [1] stands for this setting: serum-starved PC-3 cells, 30 min at 37 °C, duplicates, sandwich ELISA, approximate EC50 from least-square fit (Equation 1), mean ± standard deviation, concentration of whole entity (DNA construct or peptide).

T1 sequence (P29317 24-976): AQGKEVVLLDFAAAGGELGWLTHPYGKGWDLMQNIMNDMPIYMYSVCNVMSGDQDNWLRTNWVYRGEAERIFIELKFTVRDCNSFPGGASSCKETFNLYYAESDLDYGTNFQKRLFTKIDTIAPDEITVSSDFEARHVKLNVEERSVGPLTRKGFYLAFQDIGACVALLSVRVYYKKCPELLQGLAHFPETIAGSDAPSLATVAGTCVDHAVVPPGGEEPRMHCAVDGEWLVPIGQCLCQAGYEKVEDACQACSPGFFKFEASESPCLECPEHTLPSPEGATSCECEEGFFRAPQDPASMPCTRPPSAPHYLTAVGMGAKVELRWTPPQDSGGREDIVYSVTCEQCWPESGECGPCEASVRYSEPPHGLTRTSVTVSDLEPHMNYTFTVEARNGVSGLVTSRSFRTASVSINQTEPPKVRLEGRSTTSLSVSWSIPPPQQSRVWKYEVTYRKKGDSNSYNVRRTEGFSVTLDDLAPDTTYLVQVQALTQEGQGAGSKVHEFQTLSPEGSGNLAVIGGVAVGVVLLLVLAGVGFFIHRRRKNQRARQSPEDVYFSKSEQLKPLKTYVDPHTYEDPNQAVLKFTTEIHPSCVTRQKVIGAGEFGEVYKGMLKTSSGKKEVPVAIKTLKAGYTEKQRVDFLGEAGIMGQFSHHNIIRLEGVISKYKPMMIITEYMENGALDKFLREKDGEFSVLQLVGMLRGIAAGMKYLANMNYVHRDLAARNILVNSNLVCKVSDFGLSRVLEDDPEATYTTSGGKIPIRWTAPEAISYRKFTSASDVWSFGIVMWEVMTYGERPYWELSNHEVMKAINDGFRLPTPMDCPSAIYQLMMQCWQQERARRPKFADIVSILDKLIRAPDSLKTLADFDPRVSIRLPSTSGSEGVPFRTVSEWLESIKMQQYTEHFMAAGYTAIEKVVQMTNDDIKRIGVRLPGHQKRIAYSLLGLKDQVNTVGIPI
Procedure: Serum-starved PC-3 cells were treated with different SWL-DNA trimer constructs (9 µM), monomeric SWL peptide (150 µM) and the natural ligand ephrin-A1 (1.5 µg/mL) in duplicates for 30 min at 37 °C. Cells were washed with 1× PBS twice and further treated according to the manufacturer’s instructions.
Serum-starved PC-3 cells were treated with different concentrations of constructs in duplicates for 30 min at 37 °C. Cells were washed with 1× PBS twice and further treated according to the manufacturer’s instructions. […] Standard deviation is presented as error bars. The x-axis indicates concentrations of the constructs in terms of DNA for 0xSWL-DNA trimer—3xSWL-DNA trimer and the concentration of the peptide for SWL.
Levels of EphA2 phosphorylation were determined using the DuoSet IC Human Phospho-EphA2 kit (R&D systems, Minneapolis, MN, USA) which is based on a sandwich ELISA. Briefly, 2 × 10^5 PC-3 cells were seeded three days before the assay for the comparison of ligands. For the concentration series used to determine EC50 values, 1 × 10^6 PC-3 cells were seeded into 12-well culture plates one day before the assay. On the day of the experiment, cells were serum-starved for 4 h and treated with either 1xSWL-DNA trimer, 2xSWL-DNA trimer, 3xSWL-DNA trimer, natural ligand ephrin-A1, SWL peptide, DNA trimer only or 1× PBS/10 mM MgCl2 as negative control for 30 min at 37 °C. Cells were lysed using 250 µL/well lysis buffer (according to kit) and assayed as indicated by manufacturer’s instructions. Manifold washing was conducted after every step and the whole procedure was executed at room temperature. In brief, 96-well ELISA plates carrying specific human EphA2 capture antibodies were incubated with cell lysates of afore treated PC-3 cells. This was followed by the addition of anti-phospho-tyrosine-HRP antibodies which ultimately fulfil a colorimetric reaction by conversion of 3,3′,5,5′-Tetramethylbenzidine substrate solution for 25 min (ligands in Figure 4a) or 8 min (ephrin-A1 in Figure A7). This reaction was stopped by adding 2 N H2SO4 and absorbance was measured at 450 nm and at 520 nm (infinite M1000, Tecan, Switzerland); the latter was subtracted as reference value. To normalize values from concentration series, controls (only 1× PBS/10 mM MgCl2) were subtracted, too. Data was analyzed by fitting to the equation: (1) A=Amin+(Amax−Amin)/1+(x/EC50)^−b where A is the observed absorbance, Amin and Amax are minimal and maximal absorbance respectively, and b is the Hill coefficient.

Usually EC50 stands for the concentration needed to bring the measured effect to its halfway point. A lower EC50 goes with higher potency in that assay. In turn, `CC(C)C[C@H](NC(=O)[C@H](Cc1c[nH]c2ccccc12)NC(=O)[C@@H](N)CO)C(=O)N[C@@H](C)C(=O)N[C@@H](Cc1ccc(O)cc1)C(=O)N1CCC[C@H]1C(=O)NCC(=O)N[C@@H](C)C(=O)N[C@H](C(=O)N[C@@H](CO)C(=O)N[C@@H](Cc1ccc(O)cc1)C(=O)N[C@@H](CCCNC(=N)N)C(=O)NCC(=O)NCC(=O)N[C@@H](CCCCN=[N+]=[N-])C(=O)O)C(C)C` [SWL, reference compound] returned an EC50 under setting [1] of 154000 ± 115000 nM.

B1: ephrin-A1: natural EphA2 protein ligand, molecular weight approx. 21 kDa (protein)
chain: DRHTVFWNSSNPKFRNEDYTIHVQLNDYVDIICPHYEDHSVADAAMEQYILYLVEHEEYQLCQPQSKDQVRWQCNRPSAKHGPEKLSEKFQRFTPFTLGKEFKEGHSYYYISKPIHQHEDRCLRLKVTVSGKITHSPQAHDNPQEKRLAADDPEVRVLHSIGHS
modifications: Limits are the mature chain without signal peptide and GPI propeptide, by convention; the approx. 21 kDa MW fits a non-Fc soluble form; Possible N-glycan at Asn
For B1, the “EC50 for EphA2 receptor phosphorylation” value (ephrin-A1 dose-response (Figure A7), PC-3 cells, 30 min at 37 °C, substrate reaction 8 min) is recorded as 0.0552 ± 0.0103 µg/mL. Besides, the EC50 amounted to 2.65 nM (ephrin-A1 dose-response (Figure A7), PC-3 cells, conversion of the µg/mL value) and 2.7 ± 0.5 nM under setting [1].
